In patent US20220144943A1 (INTEGRITY BIOVENTURES, published 2022):
Changes are numbered by the printed parent chain.

B1: HC1 (SEQ ID NO: 123) + LC2 (SEQ ID NO: 127) (antibody, human IgG4 S228P, kappa, V domains shown)
VH: QVQLVQSGAEVKKPGASVKVSCKASGYAFTNYLIEWVRQAPGQGLEWMGVINPGSGATNYNQKFQGRVTMTADKSISTAYMELSRLRSDDTAVYFCARRVYFDYWGQGTLVTVSS
VL: EIVMTQSPATLSLSPGERATLSCRASQSISDYLHWYQQKPGQAPRLLIKYASQSISGIPARFSGSGSGSDFTLTISSLEPEDFAVYYCQNGHSFPLTFGQGTKLEIKR
notes: also called HC1 + LC2
B2: HC1 (SEQ ID NO: 123) + LC3 (SEQ ID NO: 128) (antibody, human IgG4 S228P, kappa, V domains shown)
VH: B1 VH
VL: B1 VL with E1D, S69T, K103R
notes: also called HC1 + LC3
B3: HC1 (SEQ ID NO: 123) + LC1 (SEQ ID NO: 126) (antibody, human IgG4 S228P, kappa, V domains shown)
VH: B1 VH
VL: B1 VL with M4L, S56T, S69T
notes: also called HC1 + LC1
B4: HC3 (SEQ ID NO: 125) + LC3 (SEQ ID NO: 128) (antibody, human IgG4 S228P, kappa, V domains shown)
VH: B1 VH with I76T, A79V, R85S, D89E
VL: B1 VL with E1D, S69T, K103R
notes: also called HC3 + LC3
B5: HC2 (SEQ ID NO: 124) + LC2 (SEQ ID NO: 127) (antibody, human IgG4 S228P, kappa, V domains shown)
VH: B1 VH with M48I, M70L
VL: B1 VL
notes: also called HC2 + LC2
B6: HC3 (SEQ ID NO: 125) + LC1 (SEQ ID NO: 126) (antibody, human IgG4 S228P, kappa, V domains shown)
VH: B1 VH with I76T, A79V, R85S, D89E
VL: B1 VL with M4L, S56T, S69T
notes: also called HC3 + LC1
B7: HC2 (SEQ ID NO: 124) + LC3 (SEQ ID NO: 128) (antibody, human IgG4 S228P, kappa, V domains shown)
VH: B1 VH with M48I, M70L
VL: B1 VL with E1D, S69T, K103R
notes: also called HC2 + LC3
B8: HC3 (SEQ ID NO: 125) + LC2 (SEQ ID NO: 127) (antibody, human IgG4 S228P, kappa, V domains shown)
VH: B1 VH with I76T, A79V, R85S, D89E
VL: B1 VL
notes: also called HC3 + LC2
B9: HC2 (SEQ ID NO: 124) + LC1 (SEQ ID NO: 126) (antibody, human IgG4 S228P, kappa, V domains shown)
VH: B1 VH with M48I, M70L
VL: B1 VL with M4L, S56T, S69T
notes: also called HC2 + LC1

Target: T1, CD47 (UniProt Q08722 19-139, limits assumed)
T1 construct: also called Antigen; Cluster of differentiation 47
T1 sequence (Q08722 19-139 limits assumed): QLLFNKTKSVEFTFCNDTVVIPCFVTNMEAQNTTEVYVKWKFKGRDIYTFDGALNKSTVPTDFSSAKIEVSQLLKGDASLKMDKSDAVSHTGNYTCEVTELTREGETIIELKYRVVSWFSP
Experiment: Octet HTX BLI, antibody on anti-human Fc biosensors, antigen in solution, 1:1 fit
Method: The affinity of 9 humanized antibody combinations and the chimeric parental antibody was evaluated by Octet. Multi-concentration kinetic experiments were performed on the Octet HTX system (ForteBio). Anti-human Fc biosensors (ForteBio) were hydrated in sample diluent (0.1% BSA in PBS and 0.02% Tween 20) and preconditioned in pH 1.9 Glycine. Antigen was diluted by a 7 point, 3 fold serial dilution starting at 500 nM with sample diluent. Antibodies were diluted to 2 ug/mL with sample diluent and then immobilized onto anti-human Fc biosensors. After baselines were established for 30 seconds in sample diluent, the biosensors were moved to wells containing serially diluted antigen to measure the association and dissociation. […] The binding affinities were characterized by fitting the kinetic sensorgrams to a monovalent binding model (1:1 binding).

Row | Binder | Kd | koff | kon
1 | B1 | 0.026 µM | 0.0041 s⁻¹ | 160000 M⁻¹ s⁻¹
2 | B2 | 0.015 µM | 0.0027 s⁻¹ | 180000 M⁻¹ s⁻¹
3 | B3 | 0.015 µM | 0.0025 s⁻¹ | 160000 M⁻¹ s⁻¹
4 | B4 | 0.015 µM | 0.0025 s⁻¹ | 170000 M⁻¹ s⁻¹
5 | B5 | 0.018 µM | 0.003 s⁻¹ | 170000 M⁻¹ s⁻¹
6 | B6 | 0.012 µM | 0.0025 s⁻¹ | 220000 M⁻¹ s⁻¹
7 | B7 | 0.023 µM | 0.0034 s⁻¹ | 150000 M⁻¹ s⁻¹
8 | B8 | 0.029 µM | 0.0036 s⁻¹ | 120000 M⁻¹ s⁻¹
9 | B9 | 0.022 µM | 0.0035 s⁻¹ | 160000 M⁻¹ s⁻¹
